Experimental findings from PMC5623700 are described below.

Assay [1] deals with human FcRn (human FCGRT & B2M heterodimer) (human) (UniProt P55899). In words: BLI; Octet Red384, multicycle kinetics; FcRn amine-coupled to AR2G tips, IgG1 2.5-80 nM; association and dissociation at pH 6 (50 mM phosphate, 150 mM NaCl, 0.1% Tween 20); heterogeneous ligand model; KD observed. (In general: BLI is a label-free optical method that tracks binding on a fibre tip over time.)

Assay [2] shares this target. Described as above. This is another data set of the same source.
Assay [3] has the same target. Put plainly: BLI; Octet Red384; FcRn amine-coupled to AR2G tips; 320 nM IgG1 associated at pH 6 and dissociated at pH 7.2; fraction bound 5 s after the start of dissociation (response at 0 s = 100%).
Assay [4] concerns the target human FcγRI with a C-terminal AVI-tag and C-terminal His-tag (Sino Biological) (human) (UniProt P12314). In words: SPR; Biacore T200, single-cycle kinetics; biotinylated FcγRI captured on a CAPchip, IgG1 injected at 0.06-5 nM; HBS-EP+; 37 °C; 1:1 kinetic model; KD observed. Background: SPR reads the build-up and loss of mass on a sensor chip optically.
Chain of UniProt P12314 (P12314 16-292): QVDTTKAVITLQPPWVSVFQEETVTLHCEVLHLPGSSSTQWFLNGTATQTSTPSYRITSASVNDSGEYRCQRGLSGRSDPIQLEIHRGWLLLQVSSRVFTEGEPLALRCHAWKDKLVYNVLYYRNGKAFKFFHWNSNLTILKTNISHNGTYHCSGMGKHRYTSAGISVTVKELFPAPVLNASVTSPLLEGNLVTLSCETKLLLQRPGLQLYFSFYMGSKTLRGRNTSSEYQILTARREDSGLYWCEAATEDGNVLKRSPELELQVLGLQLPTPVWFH
Assay [5] shares this target. The assay is described as above. The source holds these as a separate data set.
In assay [6] the target is human FcRn (human FCGRT & B2M heterodimer) (human) (UniProt P55899). In words: BLI; as a4 (FcRn on AR2G tips, pH 6), but fitted with a 1:1 binding model; not corrected for the molecular weight of the aggregates; apparent.

Where two headings read alike, the source gives them in different places.

Chain of UniProt P55899 (P55899 24-297, chain 1 of 2): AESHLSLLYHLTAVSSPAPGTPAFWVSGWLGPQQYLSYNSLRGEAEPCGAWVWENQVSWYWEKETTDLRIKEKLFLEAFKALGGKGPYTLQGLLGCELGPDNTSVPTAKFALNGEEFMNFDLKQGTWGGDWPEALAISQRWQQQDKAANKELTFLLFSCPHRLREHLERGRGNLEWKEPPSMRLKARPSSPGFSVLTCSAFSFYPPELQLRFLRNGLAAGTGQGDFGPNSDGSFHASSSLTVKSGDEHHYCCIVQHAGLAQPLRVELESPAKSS
Chain of UniProt P55899 (P61769 21-119, chain 2 of 2, further chain): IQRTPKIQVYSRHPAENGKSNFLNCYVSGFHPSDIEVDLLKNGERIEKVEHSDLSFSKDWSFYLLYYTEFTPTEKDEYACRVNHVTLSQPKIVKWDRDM

Turning to “human IgG1 monoclonal antibody, reference sample”, the Kd in assay [1] was found to be 6.3 nM; in assay [2], 5.7 nM; in assay [4] it was 0.66 nM; in assay [5], 0.56 nM. Moreover, in assay [3], the fraction bound at neutral pH was 7.5%. In assay [5], this substance displayed a maximum response of 80 RU.

As for “covalent oligomer fraction of IgG1 (DSS cross-linked, preparative SEC) (antibody)”, the Kd in assay [6] is 3 nM; in assay [4] it was 0.07 nM. This substance yielded a fraction bound at neutral pH in assay [3] of 17.7%.
